We go through 20 molecules from patent US20060257938A1, “Method of screening for drugs that block ligand binding to a lipid binding protein” (priority 2005, published 2006).

B1: 73W, 72A (protein, listed as Rattus norvegicus)
chain: AFDGTWKVDRNENYEKFMEKMGINVVKRKLGAHDNLKLTITQEGNKFTVKESSNFRNIDVVFELGVDFAYSAWDGTELTGTWTMEGNKLVGKFKRVDNGKELIAVREISGNELIQTYTYEGVEAKRIFKKE
modifications: PEPTIDE (1)...(131) wild-type rat intestinal fatty acid binding protein
B2: 74N, 72A (protein, listed as Rattus norvegicus)
chain: B1 chain with W73A, D74N
modifications: PEPTIDE (1)...(131) wild-type rat intestinal fatty acid binding protein
B3: 74C, 72A (protein, listed as Rattus norvegicus)
chain: B1 chain with W73A, D74C
modifications: PEPTIDE (1)...(131) wild-type rat intestinal fatty acid binding protein
B4: 78C2, 72A (protein, listed as Rattus norvegicus)
chain: B1 chain with W73A, L78C
modifications: PEPTIDE (1)...(131) wild-type rat intestinal fatty acid binding protein
B5: 82A1, 72A (protein, listed as Rattus norvegicus)
chain: B1 chain with W73A, W82A
modifications: PEPTIDE (1)...(131) wild-type rat intestinal fatty acid binding protein
B6: 78A3, 72A (protein, listed as Rattus norvegicus)
chain: B1 chain with W73A, L78A
modifications: PEPTIDE (1)...(131) wild-type rat intestinal fatty acid binding protein
B7: 74T, 72A (protein, listed as Rattus norvegicus)
chain: B1 chain with W73A, D74T
modifications: PEPTIDE (1)...(131) wild-type rat intestinal fatty acid binding protein
B8: 104I1, 72A (protein, listed as Rattus norvegicus)
chain: B1 chain with W73A, A104I
modifications: PEPTIDE (1)...(131) wild-type rat intestinal fatty acid binding protein
B9: 78F1, 72A (protein, listed as Rattus norvegicus)
chain: B1 chain with W73A, L78F
modifications: PEPTIDE (1)...(131) wild-type rat intestinal fatty acid binding protein
B10: 74Q, 72A (protein, listed as Rattus norvegicus)
chain: B1 chain with W73A, D74Q
modifications: PEPTIDE (1)...(131) wild-type rat intestinal fatty acid binding protein
B11: 82I3, 72A (protein, listed as Rattus norvegicus)
chain: B1 chain with W73A, W82I
modifications: PEPTIDE (1)...(131) wild-type rat intestinal fatty acid binding protein
B12: 74L, 72A (protein, listed as Rattus norvegicus)
chain: B1 chain with W73A, D74L
modifications: PEPTIDE (1)...(131) wild-type rat intestinal fatty acid binding protein
B13: 78M1, 72A (protein, listed as Rattus norvegicus)
chain: B1 chain with W73A, L78M
modifications: PEPTIDE (1)...(131) wild-type rat intestinal fatty acid binding protein
B14: 78T1, 72A (protein, listed as Rattus norvegicus)
chain: B1 chain with W73A, L78T
modifications: PEPTIDE (1)...(131) wild-type rat intestinal fatty acid binding protein
B15: 74A, 72A (protein, listed as Rattus norvegicus)
chain: B1 chain with W73A, D74A
modifications: PEPTIDE (1)...(131) wild-type rat intestinal fatty acid binding protein
B16: 82A, 72A (protein, listed as Rattus norvegicus)
chain: B1 chain with W73A, W82A
modifications: PEPTIDE (1)...(131) wild-type rat intestinal fatty acid binding protein
B17: 82F1, 72A (protein, listed as Rattus norvegicus)
chain: B1 chain with W73A, W82F
modifications: PEPTIDE (1)...(131) wild-type rat intestinal fatty acid binding protein
B18: 78I1, 72A (protein, listed as Rattus norvegicus)
chain: B1 chain with W73A, L78I
modifications: PEPTIDE (1)...(131) wild-type rat intestinal fatty acid binding protein
B19: 78H1, 72A (protein, listed as Rattus norvegicus)
chain: B1 chain with W73A, L78H
modifications: PEPTIDE (1)...(131) wild-type rat intestinal fatty acid binding protein
B20: 78W1, 72A (protein, listed as Rattus norvegicus)
chain: B1 chain with W73A, L78W
modifications: PEPTIDE (1)...(131) wild-type rat intestinal fatty acid binding protein

Where a chain is given by its changes, count along the chain named. “And” between values parts separate entries of the source, which are not always exact repeats. Equal values may be shown once.

One test in a line: Probe fluorescence ratio response to palmitic acid relative to ADIFAB2. Format: binding. As to conditions: response relative to ADIFAB2. The method, boiled down: (§1)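 Fluorescently labeled rat intestinal FABP variants were read at two emission wavelengths, near the unbound maximum (about 420 to 480 nm) and the FFA-bound maximum (about 495 to 580 nm). R = Fλ1/Fλ2 after subtracting probe-free intensity; ΔR = R+agent − R0, normalized to ADIFAB2 (rI-FABP-L72A).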
Consider B1, for which the “DR/DR PA” value is 1.05.

Regarding B2, the “DR/DR PA” value was 1.38.

Turning to B3, the “DR/DR PA” value was 0.29.

For B4, the “DR/DR PA” value came out at 0.09.

Take B5: the “DR/DR PA” value is listed as 0.26.

As to B6, the “DR/DR PA” value was 0.25.

For B7, the “DR/DR PA” value was 0.37.

Turning to B8, the “DR/DR PA” value is reported as 0.23.

Regarding B9, the “DR/DR PA” value turned out to be 0.91.

Consider B10, for which the “DR/DR PA” value turned out to be 0.43.

As for B11, the “DR/DR PA” value worked out at 0.36.

Take B12: the “DR/DR PA” value is 0.36 and 0.361.

For B13, the “DR/DR PA” value came out at 0.92.

On to B14, for which the “DR/DR PA” value was 0.54.

With B15, the “DR/DR PA” value amounted to 1.27.

With B16, the “DR/DR PA” value is reported as 0.84.

As to B17, the “DR/DR PA” value turned out to be 0.41.

Turning to B18, the “DR/DR PA” value was 0.52.

For B19, the “DR/DR PA” value is on record as 0.57.

In the case of B20, the “DR/DR PA” value came out at 0.29.

The nature of another test: Probe fluorescence ratio response to linolenic acid relative to ADIFAB2. Format: binding. As to conditions: response relative to ADIFAB2. The procedure, abridged:
as §1
In the case of B1, the “DR/DR LNA” value is reported as 1.93.

Regarding B2, the “DR/DR LNA” value amounted to 1.57.

Take B3: the “DR/DR LNA” value turned out to be 0.74.

As for B4, the “DR/DR LNA” value turned out to be 0.20.

As for B5, the “DR/DR LNA” value is on record as 0.66.

Turning to B6, the “DR/DR LNA” value is 0.50.

As for B7, the “DR/DR LNA” value turned out to be 0.78.

Turning to B8, the “DR/DR LNA” value is recorded as 0.30.

Take B9: the “DR/DR LNA” value came to 2.05.

As for B10, the “DR/DR LNA” value was found to be 0.86.

As to B11, the “DR/DR LNA” value stood at 0.45.

Turning to B12, the “DR/DR LNA” value is 0.40 and 0.404.

Consider B13, for which the “DR/DR LNA” value came out at 1.50.

With B14, the “DR/DR LNA” value is 1.20.

In the case of B15, the “DR/DR LNA” value was 1.42.

As for B16, the “DR/DR LNA” value was found to be 1.56.

Take B17: the “DR/DR LNA” value turned out to be 0.76.

Consider B18, for which the “DR/DR LNA” value was found to be 1.66.

In the case of B19, the “DR/DR LNA” value is 1.26.

Consider B20, for which the “DR/DR LNA” value amounted to 0.53.

A short description of another test: Probe fluorescence ratio response to linoleic acid relative to ADIFAB2. It counts as binding. Particulars: response relative to ADIFAB2. The method, boiled down:
as §1
For B1, the “DR/DR LA” value amounted to 1.89.

For the molecule B2, the “DR/DR LA” value is 1.44.

Consider B3, for which the “DR/DR LA” value was determined as 0.71.

For B4, the “DR/DR LA” value was 0.20.

In the case of B5, the “DR/DR LA” value is listed as 0.78.

For the molecule B6, the “DR/DR LA” value was determined as 0.44.

B7: the “DR/DR LA” value came out at 0.82.

Regarding B8, the “DR/DR LA” value is 0.30.

Consider B9, for which the “DR/DR LA” value is 2.00.

For B10, the “DR/DR LA” value amounted to 0.87.

On to B11, for which the “DR/DR LA” value was found to be 0.52.

Turning to B12, the “DR/DR LA” value is 0.30 and 0.305.

Take B13: the “DR/DR LA” value amounted to 1.44.

As to B14, the “DR/DR LA” value came out at 1.25.

Consider B15, for which the “DR/DR LA” value stood at 1.34.

For B16, the “DR/DR LA” value is reported as 1.67.

Take B17: the “DR/DR LA” value amounted to 1.08.

With B18, the “DR/DR LA” value was determined as 1.11.

Take B19: the “DR/DR LA” value is listed as 1.28.

For B20, the “DR/DR LA” value came out at 0.57.

A short description of the next test: Probe fluorescence ratio response to arachidonic acid relative to ADIFAB2. It counts as binding. As to conditions: Arachidonic acid; response relative to ADIFAB2. The procedure, abridged:
as §1
For B1, the “DR/DR AA” value came out at 1.77.

As for B2, the “DR/DR AA” value was found to be 1.62.

As to B3, the “DR/DR AA” value is 0.83.

In the case of B4, the “DR/DR AA” value is reported as 0.15.

Consider B5, for which the “DR/DR AA” value is 0.73.

In the case of B6, the “DR/DR AA” value was determined as 0.48.

In the case of B7, the “DR/DR AA” value stood at 0.76.

Take B9: the “DR/DR AA” value was 2.04.

Take B10: the “DR/DR AA” value stood at 0.81.

Turning to B11, the “DR/DR AA” value worked out at 0.67.

In the case of B12, the “DR/DR AA” value amounted to 0.22.

As for B13, the “DR/DR AA” value is reported as 1.39.

Consider B14, for which the “DR/DR AA” value turned out to be 1.07.

With B15, the “DR/DR AA” value was 1.42.

Regarding B16, the “DR/DR AA” value is on record as 1.55.

Regarding B17, the “DR/DR AA” value worked out at 0.68.

Regarding B18, the “DR/DR AA” value is on record as 1.27.

For B19, the “DR/DR AA” value came to 1.23.

Consider B20, for which the “DR/DR AA” value was determined as 0.49.

Staying with this test, now noted: arachidonic acid; response relative to ADIFAB2.
On to B8, for which the “DR/DR AA” value is on record as 0.28.

For B12, the “DR/DR AA” value is reported as 0.222.

The next test is described as follows: Probe fluorescence ratio response to oleic acid relative to ADIFAB2. It counts as binding. As to conditions: response relative to ADIFAB2. The procedure, abridged:
as §1
For the molecule B1, the “DR/DR OA” value is 1.66.

Consider B2, for which the “DR/DR OA” value was found to be 1.52.

Take B3: the “DR/DR OA” value amounted to 0.56.

As to B4, the “DR/DR OA” value is listed as 0.19.

Regarding B5, the “DR/DR OA” value is 0.80.

Regarding B6, the “DR/DR OA” value amounted to 0.41.

On to B7, for which the “DR/DR OA” value came out at 0.70.

In the case of B8, the “DR/DR OA” value was 0.31.

Regarding B9, the “DR/DR OA” value is 1.83.

On to B10, for which the “DR/DR OA” value was found to be 0.74.

Regarding B11, the “DR/DR OA” value amounted to 0.54.

Turning to B12, the “DR/DR OA” value is 0.19 and 0.188.

Regarding B13, the “DR/DR OA” value is given as 1.44.

With B14, the “DR/DR OA” value was determined as 1.08.

With B15, the “DR/DR OA” value came to 1.34.

Take B16: the “DR/DR OA” value is reported as 1.53.

As for B17, the “DR/DR OA” value is 0.78.

Turning to B18, the “DR/DR OA” value is on record as 0.93.

In the case of B19, the “DR/DR OA” value turned out to be 1.13.

As to B20, the “DR/DR OA” value stood at 0.53.
